Positions count from the first letter of the chain named.
B1: BSMUC16/CD3-001 (bispecific antibody)
chain 1: QVQLVESGGGLVKPGGSLRLSCAASGFTFSNYYMSWVRQAPGKGLEWISYISGRGSTIFYADSVKGRITISRDNAKNSLFLQMNSLRAEDTAVYFCVKDRGGYSPYWGQGTLVTVSS
chain 2: EVQLVESGGGLVQPGRSLRLSCAASGFTFDDYSMHWVRQAPGKGLEWVSGISWNSGSKGYADSVKGRFTISRDNAKNSLYLQMNSLRAEDTALYYCAKYGSGYGKFYHYGLDVWGQGTTVTVSS
chain 3: not shown
B2: BSMUC16/CD3-002 (bispecific antibody)
chain 1: B1 chain 1
chain 2: B1 chain 2 with K58I, Y99D, H108Y, L111M
chain 3: not shown
B3: BSPSMA/CD3-400 (bispecific antibody)
chain 1: QVQLVESGGGVVQPGRSLRLSCAASGFTFSSYGMHWVRQAPGKGLEWVAVISYAGNNKYYADSVKGRFTVSRDNSKKTLYLQMNSLRSEDTAVYYCAKDSYYDFLTDPDVLDIWGQGTMVTVSS
chain 2: B1 chain 2 with S33A, K58I, Y99D, H108Y, L111M
chain 3: DIQMTQSPSSLSASVGDSVTITCRASQSINNYLNWYQQKPGKAPKLLIYTASSLLSGVPSRFSGSGSGTDFTLTISGLHPEDFATYFCQQSFSTPPITFGQGTRLDIK
B4: BSPSMA/CD3-004 (bispecific antibody)
chain 1: B3 chain 1
chain 2: B1 chain 2 with K58I, Y99D, H108Y, L111M
chain 3: B3 chain 3
B5: BSPSMA/CD3-1800 (bispecific antibody)
chain 1: B3 chain 1
chain 2: B1 chain 2 with K58I, Y99D, H108Y
chain 3: B3 chain 3

What was measured:
[1] = molecular target: human MUC16 on OVCAR3 cells (human); test: cell-based or functional assay
[2] = molecular target: T1, human CD3 (cell surface-expressed) (human, UniProt P07766 23-207; P04234 22-171); test: cell-based or functional assay
T1 sequence (P07766 23-207 limits assumed, chain 1 of 2): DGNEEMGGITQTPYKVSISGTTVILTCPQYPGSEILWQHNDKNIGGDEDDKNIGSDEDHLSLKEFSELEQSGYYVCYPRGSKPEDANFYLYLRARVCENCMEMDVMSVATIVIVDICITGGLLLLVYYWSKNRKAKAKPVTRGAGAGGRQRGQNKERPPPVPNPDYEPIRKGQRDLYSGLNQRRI
T1 sequence (P04234 22-171 limits assumed, chain 2 of 2): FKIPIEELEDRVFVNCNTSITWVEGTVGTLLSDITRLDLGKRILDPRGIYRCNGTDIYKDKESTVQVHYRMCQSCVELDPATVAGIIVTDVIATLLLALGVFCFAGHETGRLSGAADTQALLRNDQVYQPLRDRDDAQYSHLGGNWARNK

[3] = molecular target: T2, human MUC16 on OVCAR3 cells (human); test: FACS, OVCAR3 (MUC16+) cells
T2 construct: Endogenous MUC16 of the OVCAR3 cell line; also called Mucin 16

[4] = molecular target: T1, human CD3 (cell surface-expressed); test: FACS, Jurkat cells
[5] = molecular target: T3, soluble heterodimeric hCD3ε/δ.mFc protein (human); test: SPR 37 C, antigen-capture format
T3 construct: also called soluble human CD3; human CD3 heterodimeric protein
T3 sequence (P07766 23-126, stated change not applied, chain 1 of 2): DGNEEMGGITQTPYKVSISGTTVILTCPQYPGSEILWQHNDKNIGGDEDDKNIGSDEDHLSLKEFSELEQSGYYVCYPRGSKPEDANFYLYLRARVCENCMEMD
T3 sequence (P04234 22-105, stated change not applied, chain 2 of 2, further chain): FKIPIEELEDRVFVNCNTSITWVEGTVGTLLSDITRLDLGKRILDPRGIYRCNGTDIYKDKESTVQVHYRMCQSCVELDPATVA

Row | Binder | OVCAR3 cell depletion EC50 [1] | T cell activation EC50 [2] | EC50 [3] | EC50 [4] | Kd [5]
1 | B1 | 0.0224 nM | 0.00588 nM | 1.2 nM | 3.21 nM | –
2 | B2 | 0.0306 nM | 0.0101 nM | 2.69 nM | – | –
3 | B3 | – | – | – | – | > 500 nM
4 | B4 | – | – | – | – | > 500 nM
5 | B5 | – | – | – | – | > 500 nM

Source: US20210253701A1 (Regeneron, published 2021)
